In patent US20190153103A1 (AbbVie / Abbott, published 2019):

T1: human BMPR1B coated on MSD plates (construct not stated) (human, UniProt O00238 14-126, limits assumed)
T1 construct: also called BMPR1B receptor
T1 sequence: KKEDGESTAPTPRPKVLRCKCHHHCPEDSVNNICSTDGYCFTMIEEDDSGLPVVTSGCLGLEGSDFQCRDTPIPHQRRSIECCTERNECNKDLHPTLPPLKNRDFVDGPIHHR

T2: rat-his
T2 construct: soluble analyte of the Biacore runs; also called rSCRx91-his; rBMPR1B-CHis
T2 chain: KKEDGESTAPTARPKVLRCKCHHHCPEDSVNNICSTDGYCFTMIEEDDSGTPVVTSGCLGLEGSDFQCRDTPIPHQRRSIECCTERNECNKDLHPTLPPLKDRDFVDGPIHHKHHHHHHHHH

T3: hBMPR1B-His (human BMPR1B extracellular domain, residues K14 to R126, with C-terminal 9x-Histidine tag) (human, UniProt O00238 14-126)
T3 construct: Residues K14-R126 are counted on the hBMPR1B ORF (NM_001203); The IgK signal peptide of the vector is left out; also called hBMPR1B-CHis; human BMPR1B-his
T3 sequence: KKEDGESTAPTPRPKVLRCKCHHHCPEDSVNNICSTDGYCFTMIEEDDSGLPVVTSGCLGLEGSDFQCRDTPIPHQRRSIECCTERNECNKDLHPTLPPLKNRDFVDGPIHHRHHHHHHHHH

T4: BMP4-his (human, UniProt P12644 293-408, limits assumed)
T4 construct: not shown: his tag
T4 sequence (looked up): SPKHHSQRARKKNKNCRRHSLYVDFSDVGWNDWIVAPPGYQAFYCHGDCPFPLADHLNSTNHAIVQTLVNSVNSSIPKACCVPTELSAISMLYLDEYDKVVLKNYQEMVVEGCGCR

B1: hBMPR1B-Fc (human BMPR1B extracellular domain, residues K14 to R126, fused to human IgG2 Fc) (Fc fusion)
chain: KKEDGESTAPTPRPKVLRCKCHHHCPEDSVNNICSTDGYCFTMIEEDDSGLPVVTSGCLGLEGSDFQCRDTPIPHQRRSIECCTERNECNKDLHPTLPPLKNRDFVDGPIHHR
notes: also called BMPR1B fused to human Fc fragment; not shown: human IgG2 Fc protein

Tests used:
[1] = biological target: T1, human BMPR1B coated on MSD plates …; experiment: MSD ELISA, BMP4 blocked; set-up: concentration or dose not given beside the values
[2] = biological target: T1, human BMPR1B coated on MSD plates …; experiment: MSD ELISA, BMP2 blocked; set-up: concentration or dose not given beside the values
rat-his [3] = biological target: T2, rat-his; experiment: Biacore
[4] = biological target: T3, hBMPR1B-His (human BMPR1B extracellular …); experiment: Biacore
Cyno-his = biological target: T5, Cyno-his (cynomolgus); experiment: Biacore
T5 construct: extracellular domain; soluble analyte of the Biacore runs; also called cSCRx91-his; cBMPR1B-CHis

[5] = biological target: T6, human BMPR1B overexpressed on the surface of HEK293T cells (N-terminal Asp-Lys epitope tag, … (human, UniProt O00238 14-502)); experiment: cell-based or functional assay
[6] = biological target: T7, rat BMPR1B overexpressed on the surface of HEK293T cells (N-terminal Asp-Lys epitope tag, … (rat, UniProt A0A8I6A0G0 62-550)); experiment: cell-based or functional assay
[7] = biological target: T8, irrelevant Fc-tagged protein; experiment: ELISA
T8 construct: ELISA control; also called irrelevant Fc construct

[8] = biological target: T9, BMPR1A-Fc (recombinant protein used in the screen 1 ELISA) (human, UniProt P36894 24-152, limits assumed); experiment: ELISA
T9 construct: also called human BMPR1A; not shown: Fc
T9 sequence (P36894 24-152 limits assumed): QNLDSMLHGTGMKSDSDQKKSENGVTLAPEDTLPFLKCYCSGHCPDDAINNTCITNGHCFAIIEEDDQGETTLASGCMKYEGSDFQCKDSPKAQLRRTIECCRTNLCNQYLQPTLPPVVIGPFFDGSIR

[9] = biological target: B1; experiment: ELISA
[10] = biological target: T3, hBMPR1B-His (human BMPR1B extracellular …); experiment: ELISA
[11] = biological target: T6, human BMPR1B overexpressed on the …; experiment: flow cytometry
[12] = biological target: T7, rat BMPR1B overexpressed on the surface …; experiment: flow cytometry
rat-his [13] = biological target: T2, rat-his; experiment: Biacore, 200 nM
[14] = biological target: T3, hBMPR1B-His (human BMPR1B extracellular …); experiment: SPR, Biacore T200: BMP2-Fc captured on anti-human capture chip, BMPR1B-his injected at 2.5-40 µM, 1:1 model
BMP4-his = biological target: T4, BMP4-his; experiment: SPR, Biacore T200: BMPR1B-Fc captured on anti-human capture chip, BMP4-his injected at 31.3-500 nM, 1:1 model

% inhibition [1]	% inhibition [2]	Kd (rat-his [3])	Kd [4]	Kd (Cyno-his)	% live, Fab-saporin, 100pM [5]	% live, Fab-saporin, 100pM [6]	ELISA [7]	ELISA [8]	ELISA [9]	ELISA [10]	Flow cytometry MFI [11]	Flow cytometry MFI [12]	binding result (rat-his [13])	Kd [14]	Kd (BMP4-his)	Binder
75%	38%	3.34 nM	2.34 nM	5.1 nM	9.53%	15.6%	0.039	0.031	0.483	1.17	5520	5080				SC91.1 (murine anti-BMPR1B antibody) (antibody, V domains shown, Murine hybridoma antibody with a kappa light chain) VH: QVQLQQPGAELVKPGASVKLSCKASGYTFTSYWMQWVKQRPGQGLEWIGEIDPSDNYTLYNQKFKGKATLTVDTSSSTAYMQLSSLTSEDSAVYYCARFGYYVDYWGLGTTLTVSS VL: DVVMTQTPLSLPVSLGDQASIFCRSSQSLVHSTGNTYLHWYLQKPGQSPKLLIYKVSNRFSGVPDRFSGSGSGTDFTLKISRVEAEDLGVYFCSQSTHVPFTFGSGTKLEIK
		2.14 nM	1.98 nM	2.56 nM	11.9%	17.9%	0.042	0.043	0.417	0.855	6880	5970				SC91.27 (murine anti-BMPR1B antibody) (antibody, V domains shown, Murine hybridoma antibody with the same VL as SC91.20) VH: QVQLQQPGAEVVKPGASVKLSCKASGYTFTNYWMQWVKQRPGQGLEWIGEIDPSDRYTMYNQKFKGKATLIVDTSSSTAYMQLSSLTSEDSAVYFCARFGYYVDYWGQGTTLTVSS VL: DVVMTQTPLSLPVSLGDQASISCRSSQSLVHSTGNTYLHWYLQKPGQSPNLLIYKVSNRFSGVPDRFSGSGSGTDFTLKISRVEAEDLGVYFCSQSTHVPFTFGSGTKLEIK
			0.163 nM	0.503 nM	9.34%	16%	0.039	0.035	0.423	0.883	6840	5840	binds			SC91.3 (murine anti-BMPR1B antibody) (antibody, V domains shown, Murine hybridoma antibody) VH: QVQLQQPGAELVKPGASVKLSCKASGYTFTSYWMQWVKQRPGQGLEWIGEIDPSDSYTLYNQKFKGKATLTVDTSSSTAYMQLSSLTSEDSAVYFCARFGYYIEYWGQGTTLTVSS VL: DVVMTQTPLSLPVSLGDQASISCRSSQSLVHSTGNTYLHWYLQKPGQSPKLLIYKVSNRFSGVPDRFSGSGSGTDFTLKISRVEAEDLGVYFCSQSTHVPFTFGSGTKLEIK
			1.15 nM	11.1 nM	15.5%	68.7%	0.04	0.117	0.387	0.791	7330	4660	binds			SC91.11 (antibody, V domains shown) VH: QVQLQQPGAELVKPGASVKLSCKASGYTFTTYWMHWVKQRPGRGLEWIGRIDPNSGGTKYNEKFKSKATLTVDKPSSTACMQLSSLTSEDSAVYYCASRRGDIDVWGTGTTVTVSS VL: DIVMTQSQKFMSTSVGDRVSVTCKASQNVGTNVFWYQQKPGQSPKALIYAASYRYSGVPDRFTGSGSGTDFTLTISNVQSEDLADYFCQQYDSYPLTFGDGTKLELR
61%	32%		8.46 nM		14.3%	102%	0.05	0.121	0.737	1.46	7250	470	binds			SC91.19 (antibody, V domains shown) VH: QIQLVQSGPELKKPGETVKISCKASGYTFTTYGMNWVKQAPGKGLKWMGWINTYSGVPSSANDFKGRFAFSLETSASTAYLQINNLKNEDTATYFCARSELRNWYFDVWGTGTTVTVSS VL: SFVMTQTPKFLLVSAGDRVTITCKASQSVGNDVAWYQQKPGQSPKLLIYYASNRYTGVPDRFTGSGYGTDFTFTISTVQAEDLAVYFCQQDYSSPFTFGSGTKLEMK
92%	11%	1.5 nM	0.922 nM	0.947 nM	11.9%	18.5%	0.05	0.055	0.829	1.19	5610	4590				SC91.15 (murine anti-BMPR1B antibody) (antibody, V domains shown, Murine hybridoma antibody) VH: QVQLQQPGAELVMPGASVKLSCKASGYTLTNYWMHWVKQRPGQGLEWIGDIDPSDTYTNYNHKFKGKATLTVDKSSSTAYMQLSSLTSEDSAVYYCARSGWDYFDSWGQGTTLTVSS VL: not shown
														61000 nM		BMP2 fused to a human Fc fragment (Fc fusion, UniProt P12643 283-396, looked up, not shown: human Fc fragment) QAKHKQRKRLKSSCKRHPLYVDFSDVGWNDWIVAPPGYHAFYCHGECPFPLADHLNSTNHAIVQTLVNSVNSKIPKACCVPTELSAISMLYLDENEKVVLKNYQDMVVEGCGCR
93%	50%	0.181 nM	0.322 nM	0.153 nM	9.44%	14.7%	0.042	0.056	0.551	1.41	5480	5270				SC91.9 (murine anti-BMPR1B antibody) (antibody, V domains shown, Murine hybridoma antibody) VH: QVQLQQPGAELVKPGASVKLSCKASGYTFISYWMHWVKQRPGQGLEWIGMIHPNSGSTNYNESFKSKATLTVDKSSSTAYMQLSSLTSEDSAVYYCARDLLIATVVVTPYFAYWGQGTILTVSS VL: DIQMTQTTSSLSASLGDRVTISCRASQDISNFLNWYQQKPDGTIKFLIYYTSRLHSGVPSRFSGSGSGTDYSLTIRNLEQEDIATYFCQQGNTLPYTFGGGTKLEIK
															1.2 nM	B1
